The supplement of paper PMC10065799, “High-throughput profiling of sequence recognition by tyrosine kinases and SH2 domains using bacterial peptide display” (eLife, 2023)
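Further: 11-residue human phosphosite peptides and single-mutation variants displayed on the E. coli surface, counted by deep sequencing, each peptide's frequency after selection divided by its frequency in the unselected input library; frequency after pTyr selection over input frequency; kinase dosed for 20-30% of maximal phosphorylation in three min.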

The sequences below were run on c-Abl (mouse) (assay: phosphorylation enrichment, bacterial display (enrichment ratio); higher = better substrate or ligand; peptides without Tyr show the background).
LNCIFYKDQTG [RS1_Y166_W163C_YF] gave a phosphorylation enrichment of 1.24.
Work on KTKLGYSPLHQ [ANK1_Y735] yielded a phosphorylation enrichment of 0.691.
Sequence QNTGVYFDLFG [PTPN11_Y62_D61V_YF] has a phosphorylation enrichment of 0.912.
CKLYQYYLDHL [ATRX_Y1849] was tested, and the phosphorylation enrichment was 1.17.
SDGHEYIFVDP [PDGFRB_Y579_YF] gave a phosphorylation enrichment of 0.573.
Work on LHRAHYDLRHT [AHSG_Y314] yielded a phosphorylation enrichment of 0.908.
Work on ILGRYYERGSI [PAX5_Y73_T75R] yielded a phosphorylation enrichment of 0.519.
With EKLIQYCQSKG [AKR1B1_Y199] the phosphorylation enrichment was 0.462.
Sequence CRAVKYLQMVR [AVPR2_Y117_G122R] has a phosphorylation enrichment of 0.733.
For YGMQLYQNYMH [GRB14_Y347], the phosphorylation enrichment was 1.2.
PSSNLYFRCLT [CNGA3_Y168_W171C_YF] showed a phosphorylation enrichment of 0.967.
KMGNIYRTEYG [MRPL3_Y265] gave a phosphorylation enrichment of 0.496.
PLDGEHFTLQI [TP53_Y327_Y327H] showed a phosphorylation enrichment of 1.19.
RKKLFYKADGE [SERPINC1_Y272_E269K] was tested, and the phosphorylation enrichment was 0.894.
SVTCPYSPALN [TP53_Y126_T125P] was tested, and the phosphorylation enrichment was 1.21.
For RRIYSYRGHLW [VHL_Y112_H110Y], the phosphorylation enrichment was 0.776.
HLDRSYSFSFS [PEAR1_Y890_R885H_YF] showed a phosphorylation enrichment of 1.17.
Sequence TRSYDYMEGGD [FGF7_Y58] has a phosphorylation enrichment of 0.586.
For KMLEKYKERLN [TLK2_Y259], the phosphorylation enrichment was 1.27.
Work on KEINDYVEKGT [SERPINA1_Y184_Q180E] yielded a phosphorylation enrichment of 0.621.
With TNGFTCGSSHQ [MANEA_Y331_Y331C] the phosphorylation enrichment was 0.728.
IENKLYGMSDP [RET_Y1062] was tested, and the phosphorylation enrichment was 0.707.
EHTILYSNNST [KANSL1_Y223_T221I] showed a phosphorylation enrichment of 0.581.
QCTSHYPEHVC [SART3_Y541_D540H] gave a phosphorylation enrichment of 0.585.
In the case of YARECYSALPQ [SARS2_Y52_G51C], the phosphorylation enrichment is reported as 0.716.
ARVANYHRDGP [CAT_Y386_Q387H] was tested, and the phosphorylation enrichment was 0.457.
In the case of GSETPYVDRTP [ESS2_Y335], the phosphorylation enrichment is reported as 0.603.
GSTLSYGRDGR [MATR3_Y158_P154S] gave a phosphorylation enrichment of 0.392.
With KDFTIHNPNLL [VANGL1_Y290_Y290H] the phosphorylation enrichment was 0.574.
For GRQGIYKENER [GPR143_Y231_T232K], the phosphorylation enrichment was 0.555.
IFHLSYLHNCE [PDE6B_Y227_YF] gave a phosphorylation enrichment of 0.782.
VIVRMYDYHVL [RPF2_Y109_G106V] showed a phosphorylation enrichment of 0.746.
PSSNLYYRCLT [CNGA3_Y168_W171C] gave a phosphorylation enrichment of 0.742.

The sequences below were run against MERTK (UniProt Q12866) in the same assay as above.
MERTK, sequence (Q12866 whole entry, looked up): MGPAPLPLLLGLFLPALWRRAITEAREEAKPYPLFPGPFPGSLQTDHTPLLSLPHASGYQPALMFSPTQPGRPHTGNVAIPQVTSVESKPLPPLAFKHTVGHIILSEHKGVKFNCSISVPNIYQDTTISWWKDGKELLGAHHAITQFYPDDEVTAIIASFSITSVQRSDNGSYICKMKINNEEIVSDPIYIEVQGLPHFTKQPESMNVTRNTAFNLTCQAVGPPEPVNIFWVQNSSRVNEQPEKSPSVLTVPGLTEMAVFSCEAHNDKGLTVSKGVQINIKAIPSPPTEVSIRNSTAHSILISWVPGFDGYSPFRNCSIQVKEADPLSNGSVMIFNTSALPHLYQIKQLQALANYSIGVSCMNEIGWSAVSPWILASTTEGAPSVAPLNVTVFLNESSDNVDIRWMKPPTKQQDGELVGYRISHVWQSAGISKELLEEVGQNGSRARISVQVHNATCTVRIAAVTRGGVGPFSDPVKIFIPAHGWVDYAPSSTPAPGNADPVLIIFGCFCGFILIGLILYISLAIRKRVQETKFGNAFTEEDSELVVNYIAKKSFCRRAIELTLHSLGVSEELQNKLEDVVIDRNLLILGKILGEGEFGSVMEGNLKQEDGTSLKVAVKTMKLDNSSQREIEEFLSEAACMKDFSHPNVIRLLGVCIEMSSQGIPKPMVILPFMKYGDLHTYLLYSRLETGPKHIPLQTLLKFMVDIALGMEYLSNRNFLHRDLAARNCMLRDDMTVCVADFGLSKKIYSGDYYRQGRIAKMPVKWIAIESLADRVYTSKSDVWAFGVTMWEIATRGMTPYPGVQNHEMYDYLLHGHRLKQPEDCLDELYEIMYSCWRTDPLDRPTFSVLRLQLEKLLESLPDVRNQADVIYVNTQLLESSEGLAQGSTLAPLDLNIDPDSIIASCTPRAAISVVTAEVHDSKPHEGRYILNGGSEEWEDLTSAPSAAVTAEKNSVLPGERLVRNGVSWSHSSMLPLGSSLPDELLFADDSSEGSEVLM
LNCIFYKDQTG [RS1_Y166_W163C_YF] showed a phosphorylation enrichment of 0.798.
With KTKLGYSPLHQ [ANK1_Y735] the phosphorylation enrichment was 0.399.
QNTGVYFDLFG [PTPN11_Y62_D61V_YF] was tested, and the phosphorylation enrichment was 3.19.
CKLYQYYLDHL [ATRX_Y1849] was tested, and the phosphorylation enrichment was 2.12.
Sequence SDGHEYIFVDP [PDGFRB_Y579_YF] has a phosphorylation enrichment of 0.425.
In the case of LHRAHYDLRHT [AHSG_Y314], the phosphorylation enrichment is reported as 0.418.
In the case of ILGRYYERGSI [PAX5_Y73_T75R], the phosphorylation enrichment is reported as 0.408.
EKLIQYCQSKG [AKR1B1_Y199] gave a phosphorylation enrichment of 0.423.
CRAVKYLQMVR [AVPR2_Y117_G122R] gave a phosphorylation enrichment of 0.331.
Sequence YGMQLYQNYMH [GRB14_Y347] has a phosphorylation enrichment of 3.75.
For PSSNLYFRCLT [CNGA3_Y168_W171C_YF], the phosphorylation enrichment was 0.808.
For KMGNIYRTEYG [MRPL3_Y265], the phosphorylation enrichment was 0.539.
Work on PLDGEHFTLQI [TP53_Y327_Y327H] yielded a phosphorylation enrichment of 0.465.
Work on RKKLFYKADGE [SERPINC1_Y272_E269K] yielded a phosphorylation enrichment of 0.531.
SVTCPYSPALN [TP53_Y126_T125P] gave a phosphorylation enrichment of 0.437.
In the case of RRIYSYRGHLW [VHL_Y112_H110Y], the phosphorylation enrichment is reported as 1.24.
For HLDRSYSFSFS [PEAR1_Y890_R885H_YF], the phosphorylation enrichment was 0.964.
Sequence TRSYDYMEGGD [FGF7_Y58] has a phosphorylation enrichment of 0.45.
Sequence KMLEKYKERLN [TLK2_Y259] has a phosphorylation enrichment of 0.475.
With KEINDYVEKGT [SERPINA1_Y184_Q180E] the phosphorylation enrichment was 0.439.
TNGFTCGSSHQ [MANEA_Y331_Y331C] showed a phosphorylation enrichment of 0.435.
With IENKLYGMSDP [RET_Y1062] the phosphorylation enrichment was 0.546.
EHTILYSNNST [KANSL1_Y223_T221I] was tested, and the phosphorylation enrichment was 0.5.
In the case of QCTSHYPEHVC [SART3_Y541_D540H], the phosphorylation enrichment is reported as 0.417.
In the case of YARECYSALPQ [SARS2_Y52_G51C], the phosphorylation enrichment is reported as 1.7.
For ARVANYHRDGP [CAT_Y386_Q387H], the phosphorylation enrichment was 0.385.
Work on GSETPYVDRTP [ESS2_Y335] yielded a phosphorylation enrichment of 0.466.
Sequence GSTLSYGRDGR [MATR3_Y158_P154S] has a phosphorylation enrichment of 0.374.
Sequence KDFTIHNPNLL [VANGL1_Y290_Y290H] has a phosphorylation enrichment of 0.453.
GRQGIYKENER [GPR143_Y231_T232K] showed a phosphorylation enrichment of 0.738.
IFHLSYLHNCE [PDE6B_Y227_YF] showed a phosphorylation enrichment of 0.436.
Work on VIVRMYDYHVL [RPF2_Y109_G106V] yielded a phosphorylation enrichment of 2.39.
Sequence PSSNLYYRCLT [CNGA3_Y168_W171C] has a phosphorylation enrichment of 3.88.

These sequences were tested against Fyn (UniProt P06241) in the same assay as above.
Fyn, sequence (P06241 whole entry, looked up): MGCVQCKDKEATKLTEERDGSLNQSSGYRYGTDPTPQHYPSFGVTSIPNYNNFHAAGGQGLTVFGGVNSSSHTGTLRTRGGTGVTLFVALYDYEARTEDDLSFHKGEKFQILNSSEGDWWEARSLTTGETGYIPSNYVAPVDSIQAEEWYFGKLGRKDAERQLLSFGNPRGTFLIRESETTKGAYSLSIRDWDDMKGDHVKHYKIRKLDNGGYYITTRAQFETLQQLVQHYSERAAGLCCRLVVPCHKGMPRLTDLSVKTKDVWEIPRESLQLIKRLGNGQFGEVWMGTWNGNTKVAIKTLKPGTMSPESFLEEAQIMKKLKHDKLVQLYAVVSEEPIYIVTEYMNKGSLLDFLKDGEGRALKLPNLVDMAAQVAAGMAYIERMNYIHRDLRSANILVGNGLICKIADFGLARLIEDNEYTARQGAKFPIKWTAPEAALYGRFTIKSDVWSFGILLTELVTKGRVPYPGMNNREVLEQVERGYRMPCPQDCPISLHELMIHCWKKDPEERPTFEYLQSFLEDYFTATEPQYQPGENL
In the case of LNCIFYKDQTG [RS1_Y166_W163C_YF], the phosphorylation enrichment is reported as 0.552.
Work on KTKLGYSPLHQ [ANK1_Y735] yielded a phosphorylation enrichment of 0.373.
Work on QNTGVYFDLFG [PTPN11_Y62_D61V_YF] yielded a phosphorylation enrichment of 3.82.
CKLYQYYLDHL [ATRX_Y1849] gave a phosphorylation enrichment of 0.587.
SDGHEYIFVDP [PDGFRB_Y579_YF] gave a phosphorylation enrichment of 0.509.
Sequence LHRAHYDLRHT [AHSG_Y314] has a phosphorylation enrichment of 0.617.
ILGRYYERGSI [PAX5_Y73_T75R] showed a phosphorylation enrichment of 0.498.
EKLIQYCQSKG [AKR1B1_Y199] was tested, and the phosphorylation enrichment was 0.448.
CRAVKYLQMVR [AVPR2_Y117_G122R] was tested, and the phosphorylation enrichment was 0.459.
Sequence YGMQLYQNYMH [GRB14_Y347] has a phosphorylation enrichment of 4.92.
Work on PSSNLYFRCLT [CNGA3_Y168_W171C_YF] yielded a phosphorylation enrichment of 0.707.
KMGNIYRTEYG [MRPL3_Y265] showed a phosphorylation enrichment of 0.475.
For PLDGEHFTLQI [TP53_Y327_Y327H], the phosphorylation enrichment was 0.668.
Sequence RKKLFYKADGE [SERPINC1_Y272_E269K] has a phosphorylation enrichment of 0.621.
Sequence SVTCPYSPALN [TP53_Y126_T125P] has a phosphorylation enrichment of 0.481.
RRIYSYRGHLW [VHL_Y112_H110Y] showed a phosphorylation enrichment of 0.986.
In the case of HLDRSYSFSFS [PEAR1_Y890_R885H_YF], the phosphorylation enrichment is reported as 0.561.
TRSYDYMEGGD [FGF7_Y58] gave a phosphorylation enrichment of 0.458.
KMLEKYKERLN [TLK2_Y259] gave a phosphorylation enrichment of 0.43.
KEINDYVEKGT [SERPINA1_Y184_Q180E] was tested, and the phosphorylation enrichment was 0.514.
Work on TNGFTCGSSHQ [MANEA_Y331_Y331C] yielded a phosphorylation enrichment of 0.618.
IENKLYGMSDP [RET_Y1062] gave a phosphorylation enrichment of 0.613.
With EHTILYSNNST [KANSL1_Y223_T221I] the phosphorylation enrichment was 0.437.
QCTSHYPEHVC [SART3_Y541_D540H] was tested, and the phosphorylation enrichment was 0.666.
YARECYSALPQ [SARS2_Y52_G51C] gave a phosphorylation enrichment of 0.636.
In the case of ARVANYHRDGP [CAT_Y386_Q387H], the phosphorylation enrichment is reported as 0.44.
Sequence GSETPYVDRTP [ESS2_Y335] has a phosphorylation enrichment of 0.451.
Sequence GSTLSYGRDGR [MATR3_Y158_P154S] has a phosphorylation enrichment of 0.353.
KDFTIHNPNLL [VANGL1_Y290_Y290H] showed a phosphorylation enrichment of 0.369.
Work on GRQGIYKENER [GPR143_Y231_T232K] yielded a phosphorylation enrichment of 0.371.
IFHLSYLHNCE [PDE6B_Y227_YF] gave a phosphorylation enrichment of 0.546.
VIVRMYDYHVL [RPF2_Y109_G106V] was tested, and the phosphorylation enrichment was 0.499.
Work on PSSNLYYRCLT [CNGA3_Y168_W171C] yielded a phosphorylation enrichment of 0.883.

Each sequence was assayed on c-Src in the same assay as above.
LNCIFYKDQTG [RS1_Y166_W163C_YF] was tested, and the phosphorylation enrichment was 1.31.
In the case of KTKLGYSPLHQ [ANK1_Y735], the phosphorylation enrichment is reported as 0.369.
Sequence QNTGVYFDLFG [PTPN11_Y62_D61V_YF] has a phosphorylation enrichment of 2.02.
In the case of CKLYQYYLDHL [ATRX_Y1849], the phosphorylation enrichment is reported as 2.05.
SDGHEYIFVDP [PDGFRB_Y579_YF] was tested, and the phosphorylation enrichment was 0.512.
In the case of LHRAHYDLRHT [AHSG_Y314], the phosphorylation enrichment is reported as 0.556.
With ILGRYYERGSI [PAX5_Y73_T75R] the phosphorylation enrichment was 0.401.
EKLIQYCQSKG [AKR1B1_Y199] was tested, and the phosphorylation enrichment was 0.479.
CRAVKYLQMVR [AVPR2_Y117_G122R] gave a phosphorylation enrichment of 0.401.
For YGMQLYQNYMH [GRB14_Y347], the phosphorylation enrichment was 3.97.
In the case of PSSNLYFRCLT [CNGA3_Y168_W171C_YF], the phosphorylation enrichment is reported as 0.48.
KMGNIYRTEYG [MRPL3_Y265] showed a phosphorylation enrichment of 0.536.
PLDGEHFTLQI [TP53_Y327_Y327H] showed a phosphorylation enrichment of 0.605.
RKKLFYKADGE [SERPINC1_Y272_E269K] gave a phosphorylation enrichment of 0.778.
In the case of SVTCPYSPALN [TP53_Y126_T125P], the phosphorylation enrichment is reported as 2.15.
Work on RRIYSYRGHLW [VHL_Y112_H110Y] yielded a phosphorylation enrichment of 1.26.
For HLDRSYSFSFS [PEAR1_Y890_R885H_YF], the phosphorylation enrichment was 1.12.
TRSYDYMEGGD [FGF7_Y58] was tested, and the phosphorylation enrichment was 0.447.
KMLEKYKERLN [TLK2_Y259] was tested, and the phosphorylation enrichment was 0.463.
KEINDYVEKGT [SERPINA1_Y184_Q180E] showed a phosphorylation enrichment of 0.517.
TNGFTCGSSHQ [MANEA_Y331_Y331C] was tested, and the phosphorylation enrichment was 0.392.
IENKLYGMSDP [RET_Y1062] gave a phosphorylation enrichment of 0.698.
For EHTILYSNNST [KANSL1_Y223_T221I], the phosphorylation enrichment was 0.547.
With QCTSHYPEHVC [SART3_Y541_D540H] the phosphorylation enrichment was 0.34.
YARECYSALPQ [SARS2_Y52_G51C] showed a phosphorylation enrichment of 0.676.
In the case of ARVANYHRDGP [CAT_Y386_Q387H], the phosphorylation enrichment is reported as 0.395.
For GSETPYVDRTP [ESS2_Y335], the phosphorylation enrichment was 0.453.
GSTLSYGRDGR [MATR3_Y158_P154S] showed a phosphorylation enrichment of 0.382.
KDFTIHNPNLL [VANGL1_Y290_Y290H] was tested, and the phosphorylation enrichment was 0.439.
GRQGIYKENER [GPR143_Y231_T232K] showed a phosphorylation enrichment of 0.436.
Sequence IFHLSYLHNCE [PDE6B_Y227_YF] has a phosphorylation enrichment of 0.431.
VIVRMYDYHVL [RPF2_Y109_G106V] was tested, and the phosphorylation enrichment was 0.498.
In the case of PSSNLYYRCLT [CNGA3_Y168_W171C], the phosphorylation enrichment is reported as 1.05.
